{"source": "patent US20190248848A1", "key": {"[1]": {"biological_target": "histone H3 trimethylated at lysine 27 (H3K27me3) in cellular chromatin at the Tk-luciferase reporter of HEK293 Gal4-EED/luc cells", "assay": "cell-based or functional assay"}, "[2]": {"biological_target": "biotinylated histone H3 peptide trimethylated at lysine 27, H3K27me3 (21-44) (UniProt P68431)", "assay": "histone peptide microspot array, 10 and 20 µM spotted H3K27me3"}}}
{"substance": "Pc2TF with the flexible linker (GGGGS)4 (MV10 mammalian expression construct, expressed in HEK293 Gal4-EED/luc cells) (from UniProt Q9HC52 1-62; Q9HC52 1-62) (designed binder)", "values": [{"measurement": "luciferase activity, Tk-luciferase reporter, HEK293 Gal4-EED/luc cells, 96 hours dox (fold against PcTF)", "setting": "[1]", "value": 2}]}
{"substance": "Pc2TF, bivalent Polycomb-based transcription factor with the flexible linker (GGGGS)4 (pET28 construct; TXTL-expressed or purified from E. coli) (from UniProt Q9HC52 1-62; Q9HC52 1-62) (designed binder)", "values": [{"measurement": "fold smaller Kd^app than PcTF", "setting": "[2]", "value": 2, "unit": "fold"}]}
